Assay results as given in US20170071208A1, “COMPOSITIONS FOR MOSQUITO CONTROL AND USES OF SAME” (Forrest Innovations Ltd., priority 2014, published 2017).

B1: Ago3: dsRNA targeting Argonaute-3 (AAEL007823), Example 1, SEQ ID NO: 1823 (nucleic acid)
chain: CCCCGTCGACGGCCACGAAGTTACGATCAAGATCATTTACAAGCGCAAACAGCGAATGAGCGAGAACATTCAATTCTACAACATTCTCTTCCAACGCATTATGAAAGTCCTGAAGATGGTCGAGATGGGTCGTAAGAACTTTGACCCCTCGGCCCCGAAACTGATTCCGCAGCATCGTCTGGAGATCTGGCCGGGATACGTTAGCGCTGTGGACGAATATGAGGGCGGCTTGATGTTGAATCTCGACGTGTCCCATCGTGTGCTGCTCCAGACGACGGTTTTGGATCACATCCGAACGCTGGCAAGGGCCAATCCCCAAGATTACAAAAACATGGCCACCAAATCGCTGCTGGGAGCCGTTATATTGACCCGA
modifications: double stranded RNA

Tests used:
[1] = test system: Aedes aegypti female mosquitoes, Rio de Janeiro strain; test: CDC bottle bioassay with deltamethrin, insecticide-resistant Rio de Janeiro strain; type: in vivo
Description: (§1) FIGS. 5A-C are graphs illustrating the dose-response curves for 3- to 5-day-old Aedes aegypti female mosquitoes on insecticide-susceptible Rockefeller strain (FIG. 5A) and on insecticide-resistant Rio de Janeiro strain (FIG. 5B). Mosquitoes were exposed to different concentrations of deltamethrin in 250-mL glass bottles for up to 24 hours and the percentage of mortality for each time point is shown. FIG. 5C, comparison of the mortality rates of female mosquitoes from Rockefeller (Rock) and Rio de Janeiro (RJ) strains exposed to 2 μg/mL of deltamethrin for different time-points. Data represent mean values of three replicates with standard deviation.
(§2) Mosquitoes were taken from an Ae. aegypti colony of the Rockefeller strain or from a mosquito field population of Ae. aegypti isolated from urban area of Rio de Janeiro, Brazil. Both lineages were reared continuously in the laboratory at 28° C. and 70-80% relative humidity. Adult mosquitoes were maintained in a 10% sucrose solution, and the adult females were fed with sheep blood for egg laying. The larvae were reared on dog/cat food unless stated otherwise.
(§3) Bottles were prepared following the Brogdon and McAllister (1998) protocol [Brogdon and McAllister (1998) Emerg Infect Dis 4:605-613]. […] At 15, 30 and 45 min intervals, the number of live and dead mosquitoes in each bottle was recorded. […]

[2] = test system: Aedes aegypti female mosquitoes, Rockefeller strain; test: CDC bottle bioassay with deltamethrin, insecticide-susceptible Rockefeller strain; type: in vivo; settings: diagnostic dosage 2 μg/mL of deltamethrin; Rockefeller strain adult females
Description: as §1, §2, §3

[3] = test system: Argonaute-3 (AAEL007823) mRNA; test: qPCR analysis of Ago-3 mRNA expression after dsRNA treatment; type: in vivo, Aedes aegypti; settings: vs water; for Ago3 mRNA levels: larvae soaked 24 h in dsRNA, 24 and 48 hours after the end of dsRNA treatment
Description: Third instar larvae were treated (in groups of 100 larvae) in a final volume of 3 mL of dsRNA solution in autoclaved water (0.5 μg/μL for sodium channel (AAEL008297), PgP (AAEL010379) and Ago3 (AAEL007823) dsRNA, or 0.1 μg/μL for CYP9J26 (JF924909.1). The control group was kept in 3 ml sterile water only. Larvae were soaked in the dsRNA solutions for 24 hr at 27° C., and then transferred into new containers (300 larvae/1500 mL of chlorine-free tap water), which were also maintained at 27° C., and were provided 6 mg/100 mL lab dog/cat diet (Purina Mills) suspended in water as a source of food on a daily basis. As pupae developed, they were transferred to individual vials to await eclosion and sex sorting. For bioassays purpose only females up to five days old were used. See Flowchart 1, FIG. 1 for detailed explanation of this experiment.
Total RNA was extracted from groups of five Ae. aegypti fourth instar larvae and early adult male/female Ae. aegypti, using TRIzol (Invitrogen, Carlsbad, Calif., USA) according to the manufacturer's instructions. RNA was treated with amplification grade DNase I (Invitrogen) and 1 μg was used to synthesize cDNA using a First Strand cDNA Synthesis kit (Invitrogen). PCR products were purified using a QIAquick PCR purification kit (Qiagen). The MEGAscript RNAi kit (Ambion) was then used for in vitro transcription and purification of dsRNAs. See Flowchart 4, FIG. 4 for detailed explanation production off dsRNA.
Approximately 1000 ng first-strand cDNA obtained as described previously was used as template. The qPCR reactions were performed using SYBR® Green PCR Master Mix (Applied Biosystems) following the manufacturer's instructions. […] Raw quantification cycle (Cq) values normalized against those of the tubulin and S7 standards were then used to calculate the relative expression levels in samples using the 2^−ΔΔct method [Livak & Schmittgen, (2001) Methods. […]

[4] = test system: Ae. aegypti Rockefeller strain; test: Egg hatching rate after larval dsRNA soaking plus feeding; type: in vivo, Aedes aegypti; settings: larvae soaked 24 h in 0.5 μg/μL dsRNA, fed twice with agarose plug containing dsRNA; vs water control
Description: FIG. 12 is a flowchart illustration depicting introduction of dsRNA into mosquito larvae via soaking with different doses of “naked” dsRNA plus additional larvae feeding with food-containing dsRNA. Step a) 100 larvae from A. aegypti Rockefeller strain (3rd instar) were soaked for 24 hours with the respective dsRNAs (concentration range from 0.02-0.5 μg/μL) or only in water and were then fed 2 times with food plus agarose 2% containing dsRNA until they reach adult stage (Step b). Step c) The adults arising were allowed to copulate for 3-5 days. Step d) mosquitoes were fed with defibrinated sheep blood. Step e) after blood feeding 15 fully-engorged females were transferred into 3 small cages to be assayed for oviposition. Step f) the total number of laid eggs and the percentage of hatched eggs were counted. […] (FIG. 13A) The total number of laid eggs and the percentage of hatched eggs were counted (FIG. 13B). […]
(§4) Five days after the blood meal, an ovipositon cup was place inside each cage containing 15 females to allow the females to lay their eggs. […] The number of eggs laid was counted and used to check the viability and egg hatching rate.
To check the viability of the eggs the oviposition paper were kept to dry and embrionate for a period minimum of 5 days. […] The hatching rate (HR) for each treatment were calculated as follow: HR=total number of hatched larvae/total number of eggs oviposited). […]

[5] = test system: Ae. aegypti Rockefeller strain; test: Oviposition assay after larval dsRNA soaking plus feeding; type: in vivo, Aedes aegypti; settings: larvae soaked 24 h in 0.5 μg/μL dsRNA, fed twice with agarose plug containing dsRNA; 15 engorged females per cage; vs water control
Description: FIG. 12 is a flowchart illustration depicting introduction of dsRNA into mosquito larvae via soaking with different doses of “naked” dsRNA plus additional larvae feeding with food-containing dsRNA. Step a) 100 larvae from A. aegypti Rockefeller strain (3rd instar) were soaked for 24 hours with the respective dsRNAs (concentration range from 0.02-0.5 μg/μL) or only in water and were then fed 2 times with food plus agarose 2% containing dsRNA until they reach adult stage (Step b). Step c) The adults arising were allowed to copulate for 3-5 days. Step d) mosquitoes were fed with defibrinated sheep blood. Step e) after blood feeding 15 fully-engorged females were transferred into 3 small cages to be assayed for oviposition. Step f) the total number of laid eggs and the percentage of hatched eggs were counted. FIGS. 13A-B are graphs illustrating larvae from Ae. aegypti Rockefeller strain (3rd instar) soaked for 24 hours in 0.5 μg/μL of Aubergine (Aub) or Argonaute-3 (Ago) dsRNAs or water only. […] (FIG. 13A) The total number of laid eggs and the percentage of hatched eggs were counted (FIG. 13B). […]
as §4

Molecule | mosquitoes in the population resistant to deltamethrin ([1]; Rio de Janeiro (RJ) strain, at diagnostic dosage 2 μg/mL) | mosquitoes killed (mortality) ([1]; diagnostic dosage 2 μg/mL of deltamethrin, Rio de Janeiro strain adult females) | mosquitoes dead (mortality) [2] | Ago3 mRNA expression ([3]; adult mosquitoes soaked with dsRNA as larvae) | Ago3 mRNA levels [3] | Ago3 mRNA levels ([3]; listed as dsRNA against Ago3) | number of hatched eggs (hatchability) [4] | oviposition rate (total number of laid eggs) [5]
CC1(C)[C@H](C(=O)O[C@H](C#N)c2cccc(Oc3ccccc3)c2)[C@@H]1C=C(Br)Br [deltamethrin] | 36.05% | 63.95% | 100% |  |  |  |  | 
B1 |  |  |  | reached normal levels | decreased mRNA levels | induce gene silencing | 50% | no difference
